Experimental data reported in the DeepSol protein solubility set.

Experiment: soluble on expression in E. coli; label from the status in PepcDB or PDB records

Row | Sequence | soluble on expression in E. coli
1 | RRAYGKNSKWVLINYNTGQPYEQTKVTPDGLIDYDAVLAANAAASNGSEAIFALGSNSHKWFGLLSSFKKKLNSSLTLTAGYDGRYYRGDHYDKITDLLGGSYYIEDPKTKLAYHAEGQQLKVGDIVNRDYTGEIMWHGLFAQMEHSSEWIDAFVSGSINYELYRNHNYGGSKSTGYLPGVSPWKSFLPWSGKAGLSYKFAQGHNVFANGGFFTRAPLFGNIYAAGAIIPNDKANMEKVLTGEVGYGFTNHKNFEFNINGYYTKWMDRVTSKRIGNEYVYLNGVDAVHCGVEAEVSYRPIRQIDLRGMFSLGDWTWQNNVSYTSYDEAGNETGQDITYIKGLHVGDAAQMTAAVSADIELFKGFHVIGKYNFLGKNYAGFNPATRNAQQYEADGKEIVESWKLPDVGLFDLSASYNFKLGSLSTTFYFNMDNVADKRYVSDADDNIIGKKHDEASALVWYGFGRTWSTGIRVNF | not soluble
2 | MADDGVNPKAFPLADTNLSQKLMDLVQQAMNYKQLKKGANEATKTLNRGISEIIVMAADAEPLEILLHLPLLCEDKNVPYVFVRSKAALGRACGVTRPVIAASITQNEGSQLKSQIQKIKEDVEKLLI | not soluble
3 | MGHHHHHHSHAAPGAQHFLYEVPPWVMCRFYKVMDALEPADWCQFAALIVRDQTELRLCERSGQRTASVLWPWINRNARVADLVHILTHLQLLRARDIITAWHPPAPLP | not soluble
4 | MLAAFISRVLRRVAQKSARRVLVASRNSSNDATFEIKKCDLYLLEEGPPVTTVLTRAEGLKYYRMMLTVRRMELKADQLYKQKFIRGFCHLCDGQEACCVGLEAGINPSDHVITSYRAHGVCYTRGLSVRSILAELTGRRGGCAKGKGGSMHMYTKNFYGGNGIVGAQGPLGAGIALACKYKGNDEICLTLYGDGAANQGQIAEAFNMAALWKLPCVFICENNLYGMGTSTERAAASPDYYKRGNFIPGLKVDGMDVLCVREATKFAANYCRSGKGPILMELQTYRYHGHSMSDPGVSYRTREEIQEVRSKRDPIIILQDRMVNSKLATVEELKEIGAEVRKEIDDAAQFATTDPEPHLEELGHHIYSSDSSFEVRGANPWIKFKSVS | soluble
5 | MGSDKIHHHHHHMTRKRAKTHSVKKAPLFVLTSSPNPKRTTSNKSAGIWSYWTRRTAYAMSTHIIPRLQKVIDGEDQGGISKAVNWQGGGGFRYFRLAPTLIVNDKWGNQIINPDYNPEMLAEALAKLEGLPDFSWILELGSGFAFVGRQYRLEVNGDEFFIDLLFYHIRLKCYVVVELKAAAFKPEHAGQLNFYLAAVDAQVKAPDDNPTIGLLLCKTQNRLVAEYALSDIDKPIGIAEYELVRALPEPLVTNLPTVEQLESELSDWQEDGEFFGV | not soluble
6 | MQLRKMQTVKKEQASLDASSNVDKMMVLNSALTEVSEDSTTGEELLLSEGSVGKNKSSACRRKREFIPDEKKDAMYWEKRRKNNEAAKRSREKRRLNDLVLENKLIALGEENATLKAELLSLKLKFGLISSTAYAQEIQKLSNSTAVYFQDYQTSKSNVSSFVDEHEPSMVSSSCISVIKHSPQSSLSDVSEVSSVEHTQESSVQGSCRSPENKFQIIKQEPMELESYTREPRDDRGSYTASIYQNYMGNSFSGYSHSPPLLQVNRSSSNSPRTSETDDGVVGKSSDGEDEQQVPKGPIHSPVELKHVHATVVKVPEVNSSALPHKLRIKAKAMQIKVEAFDNEFEATQKLSSPIDMTSKRHFELEKHSAPSMVHSSLTPFSVQVTNIQDWSLKSEHWHQKELSGKTQNSFKTGVVEMKDSGYKVSDPENLYLKQGIANLSAEVVSLKRLIATQPISASDSG | soluble
7 | MTNLMSALSKLSQALDSKNIGEVLLALQNFDEEFSAEKCEDVFVRCLQEIISWDLTVSLEISETVVRQMMNRLENQAVLEEMCNYIIKQQSSVTVEIAVEIMIEHGWILRTDDCREVWKQIESAKNTEKIEILARRMTANCRILRLSGAPKRFLEKLLKDVIISLNANKVNIPMKFLNELAIVSPFHPILVIEDFKKDSEYFYIPHVVSEETRFHLEVKEFTNFFQIESTYHKEQACQMLQVFNQIYKRMELIPQLEAPEIDKIVEFWLAALRIFNGYGIGMNDITESAKLLEKTASRYSLKSRPLFLKHFLKKISEKKDTNIGLEPQVVATIITTYQRNAFGLRSPEFYEELGEFWALCLKIKYDDVYFATVYFSAVFALAQAQAVFKIKKELCREVYHKILQPMHEQLVDFVKLKQVESNKATSEEEVMRLEHQNIGASYFSILTCTYKNAEDRILEFMKEN | not soluble
8 | FSSREQPQQNEGQIQKLNALKPDNRIESEGGLIETWNPNNKPFQCAGVALSRCTLNRNALRRPSYTNGPQEIYIQQGKGIFGMIYPGCPSTFEEPQQPQQRGQSSRPQDRHQKIYNFREGDLIAVPTGVAWWMYNNEDTPVVAVSIIDTNSLENQLDQMPRRFYLAGNQEQEFLKYQQEQGGHQSQKGKHQQEEENEGGSILSGFTLEFLEHAFSVDKQIAKNLQGENEGEDKGAIVTVKGGLSVIKPPTDEQQQRPQEEEEEEEDEKPQCKGKDKHCQRPRGSQSKSRRNGIDETICTMRLRHNIGQTSSPDIYNPQAGSVTTATSLDFPALSWLRLSAEFGSLRKNAMFVPHYNLNANSIIYALNGRALIQVVNCNGERVFDGELQEGRVLIVPQNFVVAARSQSDNFEYVSFKTNDTPMIGTLAGANSLLNALPEEVIQHTFNLKSQQARQIKNNNPFKFLVPPQESQKRAVA | soluble
9 | MIIPMNNKHPLPTPLVSIIIPVYNVEKYLYRCVKSILSQDYYDYEIILVDDGSTDGSGMICDELTEQHGHISVIHKPNGGQGSARNAGLNHAKGKYIWFIDSDDYISPHSLSVIMSQITQGDFDALFFPYIKSNGNILIGEAVGKYHAGVYRGQQLLLEGLVNMSMCTIVSLRSRWIDNRIFFREDIHFEDFEINPRVLKFLERAIFLDSNIIPYIYYTRLGSTMNQLDPQKRMRQTEDFLRIEKSWKEWFNLDSPEPNSYDMLMLRTGTNMLHRNLLNFVRNSNFSISTKLKLYAQYRKKGVFSWFYNGYRRDPYVGCTSVRVFWNTIGRSYILFSLFSIVEEIWKKIRK | not soluble
10 | MSLDSRPAVLEISASIIDISENALEQLGVDWRLHNSRFDLQTGNGTNTMLNNPGSLDSVATTAGAAAAIAATPAGGVLSAVIGGGSRYLMARISALQQTDQARITANPKVATLDNTEAVMDNRQNFYVPVAGYQSADLYAISAGVSLRVLPMVVMDGGTVRIRMNVHIEDGQITSQQVGNLPITSQSEIDTQALINEGDSLLIAGYSVEQQSKSVDAVPGLSKIPLVGALFRTDQTTGKRFQRMFLVTPRVITPEGHHHHHH | soluble
11 | QPPAPRMIADGYQLLSELGALDERKGLTQIGHQLARFPTDPRIARMIMAAKQENCLSEVLIIAAALSLQDPRDRPFEHQQAADQAHQPFRDDR | not soluble
12 | MGSDKIHHHHHHAAVKKIIEMGQNDNQVMHQLDILTNRFGGRLIGSDAYENAAEWMVREFKSWGLDVQLEEAGTVPVGFNRGPWFGRLLSDNGMILHFATPSYTSGTKGVQRGHAVMEPRNDEEFQQIKGRLNGAWVLISGKNVGWPIDRSASGDSIRAEIKKENNEIMKKNNDLRRRNWENGEKNEMLPYKEFPGLYYKEMCEAGALGFIQSSTVPIRALYDRKMMNDPNTNFDNLPELPDIKLDEHQFAIIEQMVKERRTFELEFDIRNHFKLGPVKYHNVVASIKGSKYPDEYVIISGHLDAFDVATGGIDCGTGIGPMMEAARMIAKSGAKPKRTILFIGFAGEEFGLLGAQAWVKAHKDKLPKIANLFNRDGGPEPPVGISVPQAMYDDFVKISEPIQKIRPDYPFEVKVREPRKRPTRMGGTDASVFAIEGVPTLGFTTEDFKGYDFDYGEIWHTERDLYTKNIPEYQEHTATVTAIIALGVANLDKQLSREGLYTEE | not soluble
13 | SLGMDEKSVAIVFPHHLLEDHPAAGKTSGFILVEDQLFFGDPVFGLRFHKNKLVLHRASMRYYHDHLKSRGLKAEYIQYSPDPHMGYLRDHLEGYDRVYTLELLDHELEARMKKLSMELGLEITEIEAPFIFRRNLMDGYFRDGRFLLRSFYIRERKRLSILMENSRPAGGKWTFDTENRKRMPPDLQVPAPVKLPENEYVQEAKEYVSEKFPDNPGSMDRFNYP | not soluble
14 | MGFEDLVEVTTMIADLTTDQREALLLTQLLGLSYADAAAVCGCPVGTIRSRVARARDALLADAEPDDLTG | soluble
15 | MQVSPHDTSQPKQHAQSLSSASQSEAGKYTDGRETSARWLDDDSIAQRDLWNFIGDELKMGIPDNARIREQKTRYLKNKSYLHDVTLRAEPYMYWIVEQIKQRKMPMELVLLPIVESAFDPSATSSANAAGLWQIIPGTGRNYGLKQNQWYDGRRDVIASTTAALDMMQRLNTMFDGDWLLTVAAYNSGEGRVMQAMKANKAKGKPTNFWALALPRETSIYVPKMLALSDILKNSKKYGVNLPQPNESRALAKVELGQQIELTQAAEMAGLSLNKLKSYNSGYKRNVTAPNGPHYIMVPKAHVEQLKDSLADGDIAAIQPTRLEQTPASQQYKVRSGDTLSAIATRLNVSTKDLQSWNNLRSVGALKVGQTLQVAKASGTNGSITYQVRKGDSLASIAKRHGVNIADVMRWNTVINKNANIQPGDRLTLYVSSNIKPDSLEHHHHHH | soluble
16 | VVKLAFPRELRLLTPSQFTFVFQQPQRAGTPQITILGRLNSLGHPRIGLTVAKKNVRRAHERNRIKRLTRESFRLRQHELPAMDFVVVAKKGVADLDNRALSEALEKLWRRHCRLARGS | soluble
17 | RFLSIKTSWEDYFLEDDPMIIKTEEFKSVFGNDNYAAVLTDCDNTFTKENLELIRRLSNEMLDSISYAEKITSLTDIEFMIGNEEGMAIEQIVPEEIPSDSAGLAEIRRKAFLKPYIADRLVSKDGTLTWILLKLNPFPSDSVWNKGKGAVAPEMVVGRELEHIIRKPEYAALHPKGAGMPYMTDRKMAWVNRE | not soluble
18 | SLMKQIKHFNQNYQELRQLGKVAIGRRAGKLKAGTIILFAVDSQGKILAARKMQGVTVLAKFHPLPQYVNEDIHYMDHYHPLVQKENKLTQQAMENAREIYLRVELGNYQETQPLTPLNGAKIQWQLWKNKVQTKLKGSVE | soluble
19 | MSLGILEDKKRARIFYRYFSKIYDYINPIFYSDKMRKTVVDMADIDAESLVLEVGCGTGFTTEEIVRRIGEERVVAVDITPEQMMKARAKMGGVNYFLGDAENLPFKDNSFDAAISAGSIEYWPNPQRGIEEMARVTKSGGKVVILAPRKPDNFAVRKFAESIMLFPSTQQCVYWFMKAGLEDIRFVETGPYRFWSKLVVIISGTVPEGHHHHHH | soluble
20 | MGSDKIHHHHHHMLNKVLTHLDENIEKSLERLFSLLRFQSISTDFAYKDECRKAADWLVEDLKSIGFKASRRDTSGHPMVVGHHPGPSDDCLHVLFYGHYDVQPVDPLNLWEDDPFTPSLKEREGEKVICARGASDDKGQLMTFIEACRAFKKETGQLPVRVTVLFEGEEESGSSSLVPFLKANKDELKADCALVCDTSMWDADTPSVSVALRGILGEEIIITAANRDLHSGYFGGAAANPIRILTKVLAGLHDENNRVTLPGFYDGVEETPPHILQSWNALNCTAENFLGPIGLSLPAGEKGRSVLELVWARPTAEINGISGGYEGEGIKTVIASQASAKVSFRLVHKQDPEKIRQAFRDYVCSLIPADCSVVFKEHGASPAIQLPYDSPFIKTAKDALSQEWNNPALLTVMGGSIPIVADFQSILDMETLLVGFALADDRIHSPNEKYNLKSFHKGQRSWARILATLAKTGG | not soluble
